The values that follow come from paper PMC4951694, “Structural and thermodynamic basis of proline-induced transmembrane complex stabilization” (Scientific Reports, 2016).

The target in the test is T1, integrin β3(G690C/A711P) TM peptide of the disulfide-linked αIIb(A963C)–β3(G690C/A711P) dimer (human, UniProt P05106 711-753, C687S | G690C | A711P, not fully specified; C690 disulfide-linked to C963 of αIIb(A963C); 2H/13C/15N or 2H/15N labelling in some samples).
T1 construct: integrin β3, human, P685-F727; add 26 for P05106; source: E. coli
T1 chain (looked up): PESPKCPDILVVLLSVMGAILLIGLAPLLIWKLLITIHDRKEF
Nature of the test: NMR structure; disulfide-linked dimer, 0.8 mM, in 350 mM DHPC, 105 mM DMPC bicelles (q 0.3), pH 7.4, 40 °C; interhelical NOEs and RDCs. The conditions noted are these: both partners purified.

B1: integrin αIIb(A963C) TM peptide of the disulfide-linked αIIb(A963C)–β3(G690C/A711P) dimer (peptide)
chain: not shown
modifications: C963 disulfide-linked to C690 of β3(G690C/A711P); 2H/13C/15N, 2H/15N or fractionally deuterated labelling in some samples
notes: integrin αIIb, human, A958-P998; add 31 for P08514; source: E. coli
In the case of B1, the binding result is given as “binds”.
